One molecule from patent US8728470B2, “CAB molecules” (Danisco US Inc., priority 2004, dated 2014) can be followed below.

This data set can be described thus: Immunogenicity after IV or IP administration to normal mice (IgG1 antibodies). To be noted: 20 ug in alum, days 1, 8 and 15, FIG. 20. The data set is classed as in vivo, CB6F1/J mice. Here is the method:
CAB1.11i and CAB1.2i were diluted in PBS to 200 ug/ml. For the i.p. group (group 5), CAB1.11i was diluted in a 1:1 solution of alum to PBS (resulting concentration=200 ug/ml) and vortexed rapidly for 10 minutes. The mixture was left at 2-8° C. for a minimum of 15 minutes. The mixture was revortexed 1 minute prior to injection into mice. The dosing solution was stored on ice prior to administration.
Wt BLA was diluted in PBS to 400 ug/ml. For the i.p. group, group 4, wt BLA was diluted in a 1:1 solution of alum to a PBS with resulting concentration=200 ug/ml and vortexed rapidly for 10 minutes. The mixture was left at 2-8° C. for a minimum of 15 minutes. The mixture was then revortexed 1 minute prior to injection into mice. The solution was stored on ice prior to administration.
Study design is outlined in Table 7. Female CB6F1/J mice were used for each group. Mice undergoing i.v. injections were placed under a heating lamp for approximately 3 minutes to vasodilate the tail vein, and then placed in a mouse restrainer for the i.v. injection. On days 1, 8 and 15, three mice of each strain each were administered CAB1.2i (20 ug), CAB1.11i (20 ug), or wt BLA (20 ug) intravenously, or wt BLA (20 ug) or CAB1.11i (20 ug) complexed with alum administered by an i.p. injection. Dose concentrations and volumes are outlined in Table 8. Dose concentrations were formulated based on a 100 uL injection/mouse. […]

B1: beta-lactamase: unmodified beta-lactamase protein, SEQ ID NO:11 (protein)
chain: TPVSEKQLAEVVANTITPLMKAQSVPGMAVAVIYQGKPHYYTFGKADIAANKPVTPQTLFELGSISKTFTGVLGGDAIARGEISLDDAVTRYWPQLTGKQWQGIRMLDLATYTAGGLPLQVPDEVTDNASLLRFYQNWQPQWKPGTTRLYANASIGLFGALAVKPSGMPYEQAMTTRVLKPLKLDHTWINVPKAEEAHYAWGYRDGKAVRVSPGMLDAQAYGVKTNVQDMANWVMANMAPENVADASLKQGIALAQSRYWRIGSMYQGLGWEMLNWPVEANTVVETSFGNVALAPLPVAEVNPPAPPVKASWVHKTGSTGGFGSYVAFIPEKQIGIVMLANTSYPNPARVEAAYHILEALQ
modifications: beta-lactamase protein
As to B1, the “antibody response (anti-test article IgG1)” value is “greatest antibody response”.
